Measurements published in paper PMC7280531 (2020).
Where no end group is shown, it is not given here. [ ]: non-standard residue; d: D form. Ahx = NCCCCCC(=O)O

B1: β-catenin (natural protein)
chain: MATQADLMELDMAMEPDRKAAVSHWQQQSYLDSGIHSGATTTAPSLSGKGNPEEEDVDTSQVLYEWEQGFSQSFTQEQVADIDGQYAMTRAQRVRAAMFPETLDEGMQIPSTQFDAAHPTNVQRLAEPSQMLKHAVVNLINYQDDAELATRAIPELTKLLNDEDQVVVNKAAVMVHQLSKKEASRHAIMRSPQMVSAIVRTMQNTNDVETARCTAGTLHNLSHHREGLLAIFKSGGIPALVKMLGSPVDSVLFYAITTLHNLLLHQEGAKMAVRLAGGLQKMVALLNKTNVKFLAITTDCLQILAYGNQESKLIILASGGPQALVNIMRTYTYEKLLWTTSRVLKVLSVCSSNKPAIVEAGGMQALGLHLTDPSQRLVQNCLWTLRNLSDAATKQEGMEGLLGTLVQLLGSDDINVVTCAAGILSNLTCNNYKNKMMVCQVGGIEALVRTVLRAGDREDITEPAICALRHLTSRHQEAEMAQNAVRLHYGLPVVVKLLHPPSHWPLIKATVGLIRNLALCPANHAPLREQGAIPRLVQLLVRAHQDTQRRTSMGGTQQQFVEGVRMEEIVEGCTGALHILARDVHNRIVIRGLNTIPLFVQLLYSPIENIQRVAAGVLCELAQDKEAAEAIEAEGATAPLTELLHSRNEGVATYAAAVLFRMSEDKPQDYKKRLSVELTSSLFRTEPMAWNETADLGLDIGAQGEPLGYRQDDPSYRSFHSGGYGQDALGMDPMMEHEMGGHHPGADYPVDGLPDLGHAQDLMDGLPPGDSNQLAWFDTDL

How the values were obtained:
Experiment in all cases: ITC
β-catenin [1] = target: B1
β-catenin [2] = target: B1
SAHPA1 = SAHPA1 (stapled: side chains of olefin residues (S5, R8) cross-linked by ring-closing metathesis, positions in Figure 1a; N-terminus treated with acetic anhydride (typical protocol))
SAHPA1-VHLL = SAHPA1-VHLL (stapled: side chains of olefin residues (S5, R8) cross-linked by ring-closing metathesis, positions in Figure 1a; 6-aminocaproic acid (Ahx) linker between the stapled peptide and the VHL ligand)

Kd (β-catenin [1]) [µM]	Ka (β-catenin [2]) [M⁻¹]	Ka (SAHPA1) [M⁻¹]	Kd (SAHPA1) [µM]	Ka (SAHPA1-VHLL) [M⁻¹]	Kd (SAHPA1-VHLL) [µM]	Binder
37	27000	–	–	–	–	Ac-RRWPQLILDLHVRRVWR (staple (positions not given here); not fully specified (C-terminus); also: further groups not given here) [xStAx]
–	–	26400	38	18100	55	B1
12	–	–	–	–	–	RRWPQLILDLHVRRVWR[Ahx]ALAPYIP (staple (positions not given here); not fully specified (C-terminus); also: further groups not given here) [xStAx-VHLL]
